Legend:
[1] = biological target: the molecule itself; test: cryo-electron microscopy and tomography; MreB 1 mg/ml with 1 mg/ml liposomes (E. coli total lipid extract) or lipid tubes (plus 30% C24:1 β-D galactosyl ceramide), 2 mM ATP, 4 mM MgCl2; CcMreB in 12.5 mM Tris-HCl 7.5, TmMreB in 100 mM Tris-HCl 7.5, 200 mM NaCl; 2D and subtomogram averaging
[2] = biological target: the molecule itself; test: negative-stain electron microscopy; pre-assembled filaments (CcMreB 0.25 mg/ml, V118E 0.13 mg/ml) in 12.5 mM Tris-HCl 7.5, 2 mM ATP, 4 mM MgCl2 on a monolayer of E. coli total lipid extract, 2% uranyl acetate; 2D averaging
[3] = biological target: the molecule itself; test: crystal structure; C. crescentus MreB constructs crystallised at 10-30 mg/ml, empty or with ADP or AMPPNP, no inhibitor; filament or monomer state read from the crystal packing
[4] = biological target: the molecule itself; test: as above; remark: listed apart in the source

B1: Full-length untagged Thermotoga maritima MreB1 (TmMreB) (natural protein, UniProt Q9WZ57 1-336, looked up)
chain: MLRKDIGIDLGTANTLVFLRGKGIVVNEPSVIAIDSTTGEILKVGLEAKNMIGKTPATIKAIRPMRDGVIADYTVALVMLRYFINKAKGGMNLFKPRVVIGVPIGITDVERRAILDAGLEAGASKVFLIEEPMAAAIGSNLNVEEPSGNMVVDIGGGTTEVAVISLGSIVTWESIRIAGDEMDEAIVQYVRETYRVAIGERTAERVKIEIGNVFPSKENDELETTVSGIDLSTGLPRKLTLKGGEVREALRSVVVAIVESVRTTLEKTPPELVSDIIERGIFLTGGGSLLRGLDTLLQKETGISVIRSEEPLTAVAKGAGMVLDKVNILKKLQGAG
notes: MreB1, Thermotoga maritima, GenBank AAD35673.1, M1-G336; called non-tagged / untagged; also called pFE349 (plasmid); source: expressed as an Intein-CBD-tagged fusion from plasmid pFE349 and purified as described previously (Salje et al., 2011)
binding result [1]: binds

B2: Full-length, untagged MreB from C. crescentus (CcMreB) (natural protein, Caulobacter crescentus, UniProt A0A0H3C7V4 1-347, looked up)
chain: MFSSLFGVISNDIAIDLGTANTLIYQKGKGIVLNEPSVVALRNVGGRKVVHAVGIEAKQMLGRTPGHMEAIRPMRDGVIADFEVAEEMIKYFIRKVHNRKGFVNPKVIVCVPSGATAVERRAINDSCLNAGARRVGLIDEPMAAAIGAGLPIHEPTGSMVVDIGGGTTEVAVLSLSGIVYSRSVRVGGDKMDEAIISYMRRHHNLLIGETTAERIKKEIGTARAPADGEGLSIDVKGRDLMQGVPREVRISEKQAADALAEPVGQIVEAVKVALEATPPELASDIADKGIMLTGGGALLRGLDAEIRDHTGLPVTVADDPLSCVALGCGKVLEHPKWMKGVLESTLA
notes: MreB, Caulobacter crescentus, GenBank ACL95077.1, M1-A347; Forms filaments (double protofilaments); number of copies not defined; also called Caulobacter MreB; pFE403 (plasmid); source: E. coli C41, purified (HisTrap, elution by SUMO protease, GST column, S300HR size exclusion)
binding result [2]: binds

B3: CcMreB-V118E (inter-protofilament mutant V118E in full-length CcMreB) (natural protein, Caulobacter crescentus, UniProt A0A0H3C7V4 1-347, looked up)
chain: MFSSLFGVISNDIAIDLGTANTLIYQKGKGIVLNEPSVVALRNVGGRKVVHAVGIEAKQMLGRTPGHMEAIRPMRDGVIADFEVAEEMIKYFIRKVHNRKGFVNPKVIVCVPSGATAEERRAINDSCLNAGARRVGLIDEPMAAAIGAGLPIHEPTGSMVVDIGGGTTEVAVLSLSGIVYSRSVRVGGDKMDEAIISYMRRHHNLLIGETTAERIKKEIGTARAPADGEGLSIDVKGRDLMQGVPREVRISEKQAADALAEPVGQIVEAVKVALEATPPELASDIADKGIMLTGGGALLRGLDAEIRDHTGLPVTVADDPLSCVALGCGKVLEHPKWMKGVLESTLA
notes: MreB, Caulobacter crescentus, GenBank ACL95077.1, full length with V118E; also called pFE542 (plasmid); source: E. coli C41, purified (HisTrap, elution by SUMO protease, GST column, S300HR size exclusion); not shown: His-SUMO, N-terminal, cleaved
binding result [2]: binds

B4: ΔCcMreBh (M-I9-CcMreB-A347-GSHHHHHH) (domain or fragment, Caulobacter crescentus)
chain: MISNDIAIDLGTANTLIYQKGKGIVLNEPSVVALRNVGGRKVVHAVGIEAKQMLGRTPGHMEAIRPMRDGVIADFEVAEEMIKYFIRKVHNRKGFVNPKVIVCVPSGATAVERRAINDSCLNAGARRVGLIDEPMAAAIGAGLPIHEPTGSMVVDIGGGTTEVAVLSLSGIVYSRSVRVGGDKMDEAIISYMRRHHNLLIGETTAERIKKEIGTARAPADGEGLSIDVKGRDLMQGVPREVRISEKQAADALAEPVGQIVEAVKVALEATPPELASDIADKGIMLTGGGALLRGLDAEIRDHTGLPVTVADDPLSCVALGCGKVLEHPKWMKGVLESTLA
notes: start methionine placed before I9; MreB, Caulobacter crescentus, GenBank ACL95077.1, I9-A347 (N-terminal amphipathic helix deleted); Electrospray mass 36,916 Da (36,911 Da expected); also called CCM2; source: E. coli C41(DE3), purified (HisTrap, Sephacryl S300HR)
binding result [3]: binds

B5: ΔCcMreBdh (M-I9-CcMreB(F102S, V103G)-A347-GSHHHHHH) (domain or fragment, Caulobacter crescentus)
chain: MISNDIAIDLGTANTLIYQKGKGIVLNEPSVVALRNVGGRKVVHAVGIEAKQMLGRTPGHMEAIRPMRDGVIADFEVAEEMIKYFIRKVHNRKGSGNPKVIVCVPSGATAVERRAINDSCLNAGARRVGLIDEPMAAAIGAGLPIHEPTGSMVVDIGGGTTEVAVLSLSGIVYSRSVRVGGDKMDEAIISYMRRHHNLLIGETTAERIKKEIGTARAPADGEGLSIDVKGRDLMQGVPREVRISEKQAADALAEPVGQIVEAVKVALEATPPELASDIADKGIMLTGGGALLRGLDAEIRDHTGLPVTVADDPLSCVALGCGKVLEHPKWMKGVLESTLA
notes: start methionine placed before I9; MreB, Caulobacter crescentus, GenBank ACL95077.1, I9-A347, hydrophobic loop mutated (F102S, V103G); Electrospray mass 36,813 Da (36,809 Da expected); also called pFE397 (plasmid); source: E. coli C41(DE3), purified (HisTrap, Sephacryl S300HR)
binding result [4]: binds
